In the supplement of paper PMC9170038:

Test system: MS2 coat protein
Test: apparent KD of MS2 coat protein; designed switch direction (-1 OFF switch, 1 ON switch): -1; higher = weaker reporter binding
How it was run: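 The apparent KD reported per design is the median over clusters of curve fits to normalised cluster fluorescence. The RNA switches were transcribed on Illumina chips by stalled E. coli RNA polymerase. SNAP-549-labelled MS2 coat protein was titrated from 0.7 or 1.5 nM, doubling up to 3 µM, in Tris-HCl pH 7.5 buffer containing KCl, MgCl2, BSA, DTT, tRNA and Tween-20, with no input, 200 uM small-molecule ligand, or an oligonucleotide input.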

[1] = Eterna round: R95, input ligand: FMN 200 uM
[2] = Eterna round: R95, input ligand: microRNA oligo, concentration not stated
[3] = Eterna round: R95, input ligand: none
[4] = input ligand: microRNA oligo, concentration not stated

| Sequence | apparent KD of MS2 coat protein (input ligand: FMN 200 uM) [nM] | apparent KD of MS2 coat protein (input ligand: none) [nM] | apparent KD of MS2 coat protein [2] [nM] | further results |
| --- | --- | --- | --- | --- |
| CAUGCACAUGAGGAUCACCCAUGUGAGGAUAUUUAGCGUCAGUAAUCAAUAGACAGCAGAAGAAGGCACCUGGU [Eternabot (L2) Solution 73] (Eterna round: R97, puzzle: Exclusion 1) | 35 | 29.4 |  |  |
| AAUACCGGUCUGCCUAAAGACAUGAGGAUCACCCAUGUCUGAUUCUCAACAGGCCUUUUGCUUCUCUUAACUACACA [Vetilage] (puzzle: Sensor v3, turn-off variant 1) |  |  | 23.1 | apparent KD of MS2 coat protein [1]: 13.9 nM; apparent KD of MS2 coat protein [3]: 12.6 nM |
| GGUACUAACACGAAAGUGUUAGUACUAUAAGCUUGUGUUACAUGAGGAUCACCCAUGUCCUCAUAGGCUCGUCUUGU [JL-sv3-2.17 mat747 mod] (puzzle: Sensor v3, turn-off variant 2) |  |  | 51 | apparent KD of MS2 coat protein [1]: 105 nM; apparent KD of MS2 coat protein [3]: 115 nM |
| AGACACUGAGGAUAUACAUGAGGAUCACCCAUGUAUGGGAAAUACGAAUGUAUUAGUUGUAGAAGGUGGUGUCG [Eternabot (L1) Solution 10] (Eterna round: R97, puzzle: Exclusion 3) | 183 | 199 |  |  |
| ACCUCACAUGAGGAUCACCCAUGUCAGGAUAUACAAACCGUGAUAAGACACGGUCGUAGUAGAAGGGACUAUGG [Xerereonte] (puzzle: Exclusion 1) |  |  | 98.8 |  |
| CUGUUUUCCGCAGGAUAUGCUCCUCCAUUAUUUGCAGAAGGGCGUUGAACAUGAGGAUCACCCAUGUAUGUAAUUGAUUAUUGC [JR_ExcNG1_Sub070] (Eterna round: R96, puzzle: Exclusion NG 1) | 27.7 | 33.8 |  | apparent KD of MS2 coat protein [4]: 27.5 nM |
| GUGUAGUCAGGAUAUACAUAGGAAGAUAAUAUAAUAUAAGUACAUGAGGAUCACCCAUGUAGAAGGGACAGUGU [Excluse me!! 9 - Jieux - Exclusion 2] (puzzle: Exclusion 2) |  |  | 35.6 |  |
| AGGUGCUUCUGGAGACAUGAGGAUCACCCAUGUUGAGUUAGCGAGGAUAUCGGUAACCAUUGUUAUGAGAAGGCGCAAACCAGA [Ex NG3 #40] (Eterna round: R96, puzzle: Exclusion NG 3) | 22.9 | 27.8 |  | apparent KD of MS2 coat protein [4]: 10.5 nM |
| AAGAUGCGGGUAGGAUAUGGAGAGAAAGAAAGACCAGAAGGACUGGUCACACAACAUGAGGAUCACCCAUGUGUGUGUUGCGAA [EX ng 1 6] (Eterna round: R96, puzzle: Exclusion NG 1) |  |  |  | apparent KD of MS2 coat protein [4]: 8.52 nM |
| GUUAAGGUAGGAUAUACGAUAAUAUAGGGUAGAGAUAUAACACAUGAGGAUCACCCAUGUAGAAGGACCAAUUG [Mat - Exclusion 2 - Mod of my Tesla design - D55] (puzzle: Exclusion 2) |  |  | 26.2 |  |
| CUCAUGUGAGGAUAUCAGUAGUAAAAAAAUAAAAUUACUACUGAGAAGGCACAUGAGGAUCACCCAUGUGCCAA [EX4 337: Super Stable 37] (Eterna round: R96, puzzle: Exclusion 4) |  |  |  | apparent KD of MS2 coat protein [4]: 12.8 nM |
| AAAUAGGCAGGAUAUACAUGAGGAUCACCCAUGUGCCUAUGAAAGGUAAUUUUGAAAGGUAGAAGGGCCUAAAA [ChP 13.04.2015 #4] (puzzle: Exclusion 3) |  |  | 10.1 |  |
| GCUUGAGCAGGAUAUACAAUGAGCUUGAGAAAUCGAGUUCGACAUGAGGAUCACCCAUGUAGAAGGGUUCGAGU [-27.3, -25 kcal, A 31% 1 and 1bis] (Eterna round: R97, puzzle: Exclusion 2) | 38.4 | 24.3 |  |  |
| CAUUAUGUUGAGGAUAUGCGCCGGAAAACUGACGCAGAAGGCGACACAUGAGGAUCACCCAUGUCAGUUCGCGA [salish99_ex6_r004_424] (Eterna round: R97, puzzle: Exclusion 6) | 10.6 | 10.6 |  |  |
| CUUUUGUGAGGAUAUCUGUAGUAAAAAAAUAAAAUUACUACUGAGAAGGCACAUGAGGAUCACCCAUGUUCCUC [salish99_ex4_r3_035] (puzzle: Exclusion 4) |  |  | 34 |  |
| ACAAGCUUAAAAAUCCUAAACAUGAGGAUCACCCAUGUUCGUCUUAUAAAAAUAAAAAUAAAAAACAAAAAAUAAAA [Sensor V2: 71] (Eterna round: R96, puzzle: Sensor v2, turn-off variant) | 39 | 39.3 |  | apparent KD of MS2 coat protein [4]: 228 nM |
| UCGUGUAUAGAGGAUAUAUUAAUAUUUAAAACAAUAGAAGGCUAAACAUGAGGAUCACCCAUGUAUUUGGUUUU [JR_Ex6_Sub054] (Eterna round: R97, puzzle: Exclusion 6) | 58.4 | 20.9 |  |  |
| GAAUAGGCAGGAUAUACAUGAGGAUCACCCAUGUGCUUGCGAUCGGCAAGCGAACAACGUAGAAGGGCCUUAAC [ChP 13.04.2015 #13] (puzzle: Exclusion 3) |  |  | 15.8 |  |

| Sequence | apparent KD of MS2 coat protein (input ligand: FMN 200 uM) [nM] | apparent KD of MS2 coat protein (input ligand: none) [nM] | apparent KD of MS2 coat protein [2] [nM] | further results |
| --- | --- | --- | --- | --- |
| UUUGAUUAUGUGAGGAUAUACUGUUUGUAUUGAUUGUAGAAGGUACAUGAGGAUCACCCAUGUUUUGUAUUUAU [JR_BME4_Sub036] (puzzle: Brourd's mod of Exclusion 4) |  |  | 17.1 |  |
| GCGCCAUCGUGAGAUGGCGUAUAAACAUGAGGAUCACCCAUGUAGGAUAUCGAUUGCUUUGCAGUCGAGAAGGGCAUUAUAAGU [JL ENG3 3.75] (Eterna round: R96, puzzle: Exclusion NG 3) | 29.2 | 28.4 |  | apparent KD of MS2 coat protein [4]: 19 nM |
| CUGGGCCGAGGAUAUAUUAUGUGAAACAUGAGGAUCACCCAUGUAAUAUGAUGGAUGUAAAUAGAAGGCGGUCUAG [Mat - Exclusion 5 - JL mod - D27] (puzzle: Exclusion 5) |  |  | 17.4 | apparent KD of MS2 coat protein [1]: 28.2 nM; apparent KD of MS2 coat protein [3]: 21.3 nM |
| UAGUGGGUACGAAGGAGUUGUAUGAGCGGAGGCUCAGUGACAUGAGGAUCACCCAUGUAGCUUUUUGCUCGUCUUAA [JR_SV3TOV2_Sub038] (puzzle: Sensor v3, turn-off variant 2) |  |  | 109 | apparent KD of MS2 coat protein [1]: 35.7 nM; apparent KD of MS2 coat protein [3]: 32.4 nM |
| UUUAUAUAGUAAGGAUAUGUAUUAUUUUUGUCAACAGAAGGUACUGACAUGAGGAUCACCCAUGUUUUAGUGUGGGCAUGUAGU [JMF's solution 99] (Eterna round: R96, puzzle: Exclusion NG 1) |  |  |  | apparent KD of MS2 coat protein [4]: 177 nM |
| UUAACAUGCUGGUGAUCAUACAUGAGGAUCACCCAUGUAACAAGCUUUUUGUUCGUCUUAUAAUUUAAGAUCACCAG [Stov1/7-B1] (Eterna round: R97, puzzle: Sensor, turn-off variant 1) | 21.6 | 20.3 |  |  |
| UACAUACGUCGAUCGAAAGACAUGAGGAUCACCCAUGUACGAUGUCAACGUCAAAUCCAAGUAUUUUGCUCUCGUCA [Eternabot (L2) Solution 32] (Eterna round: R97, puzzle: Sensor, turn-off variant 1) | 15.6 | 16.1 |  |  |
| AGUACUAACACGAAAGUGUUAGUACAAUAAGCUUGUGAAACAUGAGGAUCACCCAUGUCCUCAUAAGCUCGUCUUGU [salish99_TOv2_r3_009] (puzzle: Sensor v3, turn-off variant 2) |  |  | 353 | apparent KD of MS2 coat protein [1]: 15.2 nM; apparent KD of MS2 coat protein [3]: 13.7 nM |
| UACGAACUAGGAUAUGCAAAGGGCUCGCUUUCCUUCGAUAAACUUGAGGAUCACCCAAGUAGAAGGAGUUUGUA [Mod 39 - Jieux - Exclusion 2] (Eterna round: R97, puzzle: Exclusion 2) | 30.2 | 11.4 |  |  |
| GAUCAACAUGAGGAUCACCCAUGUGAGGAUAUGAUACUAUGUACUUCGGUACAUAGUAUCAGAAGGCAUGUGAA [Ex1-3: 77] (puzzle: Exclusion 1) |  |  | 80.1 |  |
| UUAAUUAAUUUAUUAGAUCCUCACAUGAGGAUCACCCAUGUGCAGGAUAUCAGCUCGUUUAGAGCUGAGAAGGGCACUAUAAAU [ExNG3/10-B2] (Eterna round: R96, puzzle: Exclusion NG 3) | 24.6 | 38.1 |  | apparent KD of MS2 coat protein [4]: 41.8 nM |
| UACUUCUGAGGAUAUACAUAGAUUUACAUGAGGAUCACCCAUGUUCCUCUUUGUAUAAAUGUAGAAGGCAGAAGAU [Mat - Exclusion 5 - JL Mod - D74] (Eterna round: R97, puzzle: Exclusion 5) | 95.6 | 231 |  |  |
| CCGGUUGGCGCAGGAUAUACAUGAGGAUCACCCAUGUUCAUGAGCAUCAGCCAUGAGUUUUUGUUGUAGAAGGGUGGCCCGGCC (Eterna round: R96, puzzle: Exclusion NG 2) | 19.6 | 23.5 |  | apparent KD of MS2 coat protein [4]: 15.6 nM |
| CCGACGUGAGGAUAUCCAUCUGGAUCAGACAAGAUCCUGAUGGAGAAGGCACAUGAGGAUCACCCAUGUUACGG [Mat - Exclusion 4 - Eli Mod - D59] (Eterna round: R97, puzzle: Exclusion 4) | 738 | 412 |  |  |
| GUCAGGAAAGGAUAUACAAGUAGUCACUCUCUUUGCAGUUCACAUGAGGAUCACCCAUGUAGAAGGUUCGGACG [EX2 C.9] (Eterna round: R97, puzzle: Exclusion 2) | 38.9 | 14.1 |  |  |
| AUUUUAAUAUAGGAUAUCGAAUUUAUUAAUUAUCGAGAAGGAUAAACAUGAGGAUCACCCAUGUGGUAUCAUGG [Mat - Exclusion 6 - JL Mod - D38] (puzzle: Exclusion 6) |  |  | 226 |  |
| CAAUUCAGAGGAUAUGCGCAUAGAUAAGACUUUUUUUCUUAACAUGAGGAUCACCCAUGUAGAAGGCUGUAACC [Ex2 #63] (Eterna round: R97, puzzle: Exclusion 2) | 19.8 | 18.2 |  |  |
